Drawing on patent US20220010021A1 (Sanofi, published 2022), this text covers koff, EC50 and Emax for 21 molecules.

One assay concerns the target T1, human beta-Klotho (KLB) (human, UniProt Q86Z14 53-997).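 Note: Anti-KLB antibodies captured on anti-human Fc CM5 chip, KLB injected as analyte, 180 s association and 1800 s dissociation, fitted to 1:1 binding model.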
T1 construct: bought protein; also called human KLB
T1 sequence (looked up): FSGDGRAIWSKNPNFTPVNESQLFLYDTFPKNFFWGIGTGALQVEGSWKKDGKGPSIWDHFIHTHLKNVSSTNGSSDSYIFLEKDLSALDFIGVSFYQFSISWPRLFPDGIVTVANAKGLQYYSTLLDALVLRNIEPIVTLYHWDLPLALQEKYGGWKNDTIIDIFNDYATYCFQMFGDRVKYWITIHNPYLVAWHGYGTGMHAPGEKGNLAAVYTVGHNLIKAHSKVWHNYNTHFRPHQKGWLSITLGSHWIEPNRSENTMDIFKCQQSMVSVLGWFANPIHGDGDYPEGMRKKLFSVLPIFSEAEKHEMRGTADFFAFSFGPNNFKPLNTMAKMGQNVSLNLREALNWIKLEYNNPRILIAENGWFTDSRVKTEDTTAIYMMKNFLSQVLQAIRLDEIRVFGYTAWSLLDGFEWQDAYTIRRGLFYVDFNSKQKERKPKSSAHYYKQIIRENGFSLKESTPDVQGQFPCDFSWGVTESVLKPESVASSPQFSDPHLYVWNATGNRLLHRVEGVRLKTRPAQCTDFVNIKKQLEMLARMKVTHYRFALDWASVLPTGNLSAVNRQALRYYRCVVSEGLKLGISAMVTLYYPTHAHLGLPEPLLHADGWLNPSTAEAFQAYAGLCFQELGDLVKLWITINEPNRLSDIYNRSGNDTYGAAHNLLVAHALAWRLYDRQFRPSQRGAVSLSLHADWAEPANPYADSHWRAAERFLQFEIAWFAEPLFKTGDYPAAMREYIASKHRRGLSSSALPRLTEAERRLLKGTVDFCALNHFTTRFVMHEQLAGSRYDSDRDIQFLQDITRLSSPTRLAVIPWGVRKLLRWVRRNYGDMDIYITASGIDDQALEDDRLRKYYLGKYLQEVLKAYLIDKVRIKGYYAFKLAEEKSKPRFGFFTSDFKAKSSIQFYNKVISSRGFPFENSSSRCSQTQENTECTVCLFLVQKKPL
Briefly: SPR. On the technique in general: SPR reads the build-up and loss of mass on a sensor chip optically.

Assay [1] addresses human FGFR1c + KLB receptor complex on HEK293 iLite FGF21 reporter cells (human, UniProt P11362 22-822; Q86Z14 1-1044). Nature of the assay: cell-based or functional assay.

Chain of human FGFR1c + KLB receptor complex on HEK293 iLite FGF21 reporter cells (P11362 22-822, chain 1 of 2): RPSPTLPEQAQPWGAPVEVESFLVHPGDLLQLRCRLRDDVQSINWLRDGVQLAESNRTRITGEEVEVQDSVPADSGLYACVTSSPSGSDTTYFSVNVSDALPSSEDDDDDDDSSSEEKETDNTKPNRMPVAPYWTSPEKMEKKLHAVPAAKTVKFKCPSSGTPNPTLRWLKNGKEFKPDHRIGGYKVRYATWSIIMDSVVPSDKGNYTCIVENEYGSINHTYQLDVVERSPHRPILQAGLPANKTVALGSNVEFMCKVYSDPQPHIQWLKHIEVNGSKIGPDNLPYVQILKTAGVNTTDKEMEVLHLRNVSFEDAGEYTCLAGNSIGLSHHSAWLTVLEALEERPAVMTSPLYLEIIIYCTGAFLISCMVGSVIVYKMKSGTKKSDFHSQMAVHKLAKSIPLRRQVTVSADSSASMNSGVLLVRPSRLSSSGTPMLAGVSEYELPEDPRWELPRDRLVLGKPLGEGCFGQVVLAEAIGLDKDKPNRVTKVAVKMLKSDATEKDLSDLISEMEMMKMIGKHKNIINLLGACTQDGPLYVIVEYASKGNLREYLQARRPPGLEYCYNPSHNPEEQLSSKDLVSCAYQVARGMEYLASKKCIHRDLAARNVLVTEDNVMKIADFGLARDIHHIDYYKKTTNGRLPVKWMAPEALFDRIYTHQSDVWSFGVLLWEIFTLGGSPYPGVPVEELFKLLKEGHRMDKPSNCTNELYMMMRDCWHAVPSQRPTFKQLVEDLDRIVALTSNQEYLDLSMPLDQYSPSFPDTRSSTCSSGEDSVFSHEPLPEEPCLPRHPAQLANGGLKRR
Chain of human FGFR1c + KLB receptor complex on HEK293 iLite FGF21 reporter cells (Q86Z14 whole entry, chain 2 of 2): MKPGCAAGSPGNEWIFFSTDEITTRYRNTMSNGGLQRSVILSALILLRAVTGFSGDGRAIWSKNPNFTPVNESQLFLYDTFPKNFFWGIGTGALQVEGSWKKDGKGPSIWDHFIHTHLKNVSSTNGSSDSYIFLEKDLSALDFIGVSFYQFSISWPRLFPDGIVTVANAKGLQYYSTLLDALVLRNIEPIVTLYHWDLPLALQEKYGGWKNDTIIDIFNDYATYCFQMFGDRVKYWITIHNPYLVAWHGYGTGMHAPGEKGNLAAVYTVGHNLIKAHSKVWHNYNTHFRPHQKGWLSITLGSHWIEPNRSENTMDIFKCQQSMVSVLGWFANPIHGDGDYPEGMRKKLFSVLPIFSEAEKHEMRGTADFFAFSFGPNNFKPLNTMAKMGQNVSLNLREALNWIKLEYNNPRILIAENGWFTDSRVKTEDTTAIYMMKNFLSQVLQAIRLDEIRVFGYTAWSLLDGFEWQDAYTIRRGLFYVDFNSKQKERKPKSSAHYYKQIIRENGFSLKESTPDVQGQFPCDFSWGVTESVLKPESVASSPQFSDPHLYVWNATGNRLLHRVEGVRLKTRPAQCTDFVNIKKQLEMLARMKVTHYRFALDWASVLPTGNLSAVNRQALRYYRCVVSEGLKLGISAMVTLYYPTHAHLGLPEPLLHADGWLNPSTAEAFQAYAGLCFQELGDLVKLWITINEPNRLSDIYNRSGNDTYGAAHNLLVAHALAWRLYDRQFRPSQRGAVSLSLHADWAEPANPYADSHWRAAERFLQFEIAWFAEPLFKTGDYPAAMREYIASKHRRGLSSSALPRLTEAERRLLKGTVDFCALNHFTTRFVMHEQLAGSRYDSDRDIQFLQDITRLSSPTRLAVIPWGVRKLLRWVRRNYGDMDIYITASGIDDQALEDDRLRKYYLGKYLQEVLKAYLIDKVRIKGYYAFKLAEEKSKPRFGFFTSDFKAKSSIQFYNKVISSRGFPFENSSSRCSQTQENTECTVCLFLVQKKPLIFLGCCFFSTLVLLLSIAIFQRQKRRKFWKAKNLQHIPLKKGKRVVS

B1: Ab0191 (antibody, IgG4, V domains shown)
VH: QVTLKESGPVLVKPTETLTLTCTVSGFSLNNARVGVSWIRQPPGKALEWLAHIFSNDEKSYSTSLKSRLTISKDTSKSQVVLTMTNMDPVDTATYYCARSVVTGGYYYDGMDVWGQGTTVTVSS
VL: SYVLTQPPSVSVAPGQTARITCGGNNIGSESVHWYQQKPGQAPVLVVYDDSDRPSGIPERFSGSNSGNTATLTISRVEAGDEADYYCQVWDGESDHVVFGGGTKLTVLG
notes: IgG4 PE
In turn, B1 had a koff with human beta-Klotho (KLB) of 0.000144 s⁻¹. In assay [1], the EC50 turned out to be 0.04 nM and the Emax turned out to be 2470%.

B2: Ab0215 (antibody, IgG4, V domains shown)
VH: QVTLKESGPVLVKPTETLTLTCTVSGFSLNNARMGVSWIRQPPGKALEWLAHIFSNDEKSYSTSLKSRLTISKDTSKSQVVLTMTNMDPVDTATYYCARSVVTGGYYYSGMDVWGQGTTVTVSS
VL: SYVLTQPPSVSVAPGQTARITCGGSNIGSESVHWYQQKPGQAPVLVVYDDSDRPSGIPERFSGSNSGNTATLTISRVEAGDEADYYCQVWDGNSDHVVFGGGTKLTVLG
notes: IgG4 PE
As for B2, the koff with human beta-Klotho (KLB) was determined as 0.00125 s⁻¹. Besides, in assay [1], the EC50 came to 0.04 nM and the Emax is 2000%.

B3: Ab0223 (antibody, IgG4, V domains shown)
VH: not shown
VL: SYVLTQPPSVSVAPGQTARITCGGNNIGSESVHWYQQKPGQAPVLVVYSDSDRPSGIPERFSGSNSGNTATLTISRVEAGDEADYYCQVWDGNSDHVVFGGGTKLTVLG
notes: IgG4 PE
For the molecule B3, the koff in the assay with human beta-Klotho (KLB) is 0.00024 s⁻¹. In assay [1], the EC50 stood at 0.06 nM and the Emax was determined as 2050%.

B4: Ab0208 (antibody, IgG4, V domains shown)
VH: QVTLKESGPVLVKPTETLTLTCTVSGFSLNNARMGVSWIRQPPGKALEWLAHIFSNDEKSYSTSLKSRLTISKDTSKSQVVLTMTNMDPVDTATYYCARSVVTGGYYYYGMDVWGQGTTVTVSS
VL: SYVLTQPPSVSVAPGQTARITCGGSNIGSESVHWYQQKPGQAPVLVVYDDSDRPSGIPERFSGSNSGNTATLTISRVEAGDEADYYCQVWDGNSDHVVFGGGTKLTVLG
notes: IgG4 PE
Take B4: the koff with human beta-Klotho (KLB) was 0.0021 s⁻¹. Also, in assay [1], the EC50 was determined as 0.27 nM and the Emax came to 1270%.

B5: Ab0204 (antibody, IgG4, V domains shown)
VH: QVTLKESGPVLVKPTETLTLTCTVSGFSLNNARVGVSWIRQPPGKALEWLAHIFSNDEKSYSTSLKSRLTISKDTSKSQVVLTMTNMDPVDTATYYCARSVVTGGYYYEGMDVWGQGTTVTVSS
VL: SYVLTQPPSVSVAPGQTARITCGGNNIGSESVHWYQQKPGQAPVLVVYDDSDRPSGIPERFSGSNSGNTATLTISRVEAGDEADYYCQVWTGNSDHVVFGGGTKLTVLG
notes: IgG4 PE
On to B5, for which the koff in the assay with human beta-Klotho (KLB) came to 0.00133 s⁻¹. In assay [1], the EC50 is 0.04 nM and the Emax turned out to be 1420%.

B6: Ab0219 (antibody, IgG4, V domains shown)
VH: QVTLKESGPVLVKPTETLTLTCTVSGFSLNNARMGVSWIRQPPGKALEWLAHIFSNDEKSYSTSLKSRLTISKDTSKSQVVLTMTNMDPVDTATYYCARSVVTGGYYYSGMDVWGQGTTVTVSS
VL: SYVLTQPPSVSVAPGQTARITCGGNNIGSESVHWYQQKPGQAPVLVVYDDSDRPSGIPERFSGSNSGNTATLTISRVEAGDEADYYCQVWDGESDHVVFGGGTKLTVLG
notes: IgG4 PE
Take B6: in the assay with human beta-Klotho (KLB), the koff came out at 0.000915 s⁻¹. In addition, in assay [1], the EC50 was determined as 0.02 nM and the Emax is 2490%.

B7: Ab0203 (antibody, IgG4, V domains shown)
VH: QVTLKESGPVLVKPTETLTLTCTVSGFSLNNARVGVSWIRQPPGKALEWLAHIFSNDEKSYSTSLKSRLTISKDTSKSQVVLTMTNMDPVDTATYYCARSVVTGGYYYEGMDVWGQGTTVTVSS
VL: SYVLTQPPSVSVAPGQTARITCGGNNIGSESVHWYQQKPGQAPVLVVYDESDRPSGIPERFSGSNSGNTATLTISRVEAGDEADYYCQVWDGNSDHVVFGGGTKLTVLG
notes: IgG4 PE
The molecule B7 yielded a koff with human beta-Klotho (KLB) of 0.00151 s⁻¹. In addition, in assay [1], the EC50 is 0.05 nM and the Emax is 1600%.

B8: Ab0221 (antibody, IgG4, V domains shown)
VH: not shown
VL: SYVLTQPPSVSVAPGQTARITCGGANIGSESVHWYQQKPGQAPVLVVYDDSDRPSGIPERFSGSNSGNTATLTISRVEAGDEADYYCQVWDGNSDHVVFGGGTKLTVLG
notes: IgG4 PE
In the assay with human beta-Klotho (KLB), B8 had a koff of 0.00011 s⁻¹. Besides, in assay [1], the EC50 is 0.09 nM and the Emax amounted to 2000%.

B9: Ab0217 (antibody, IgG4, V domains shown)
VH: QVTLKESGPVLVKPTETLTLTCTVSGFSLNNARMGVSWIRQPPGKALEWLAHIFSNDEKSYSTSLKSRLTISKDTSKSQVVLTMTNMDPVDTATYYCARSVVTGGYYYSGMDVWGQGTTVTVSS
VL: SYVLTQPPSVSVAPGQTARITCGGNNIGSESVHWYQQKPGQAPVLVVYDESDRPSGIPERFSGSNSGNTATLTISRVEAGDEADYYCQVWDGNSDHVVFGGGTKLTVLG
notes: IgG4 PE
In the assay with human beta-Klotho (KLB), B9 showed a koff of 0.002 s⁻¹. Moreover, in assay [1], the EC50 was found to be 0.07 nM and the Emax was 1970%.

B10: Ab0196 (antibody, IgG4, V domains shown)
VH: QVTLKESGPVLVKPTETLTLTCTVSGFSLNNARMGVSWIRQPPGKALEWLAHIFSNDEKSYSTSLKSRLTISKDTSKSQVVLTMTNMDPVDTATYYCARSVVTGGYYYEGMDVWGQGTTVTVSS
VL: SYVLTQPPSVSVAPGQTARITCGGNNIGSESVHWYQQKPGQAPVLVVYDESDRPSGIPERFSGSNSGNTATLTISRVEAGDEADYYCQVWDGNSDHVVFGGGTKLTVLG
notes: IgG4 PE
As for B10, the koff in the assay with human beta-Klotho (KLB) was found to be 0.00194 s⁻¹. Moreover, in assay [1], the EC50 amounted to 0.12 nM and the Emax was 2050%.

B11: Ab0197 (antibody, IgG4, V domains shown)
VH: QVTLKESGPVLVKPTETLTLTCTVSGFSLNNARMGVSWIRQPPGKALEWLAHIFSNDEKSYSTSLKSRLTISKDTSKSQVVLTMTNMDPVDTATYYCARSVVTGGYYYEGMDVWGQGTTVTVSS
VL: SYVLTQPPSVSVAPGQTARITCGGNNIGSESVHWYQQKPGQAPVLVVYDDSDRPSGIPERFSGSNSGNTATLTISRVEAGDEADYYCQVWTGNSDHVVFGGGTKLTVLG
notes: IgG4 PE
B11 returned a koff with human beta-Klotho (KLB) of 0.00167 s⁻¹. Moreover, in assay [1], the EC50 worked out at 0.08 nM and the Emax is 2000%.

B12: Ab0198 (antibody, IgG4, V domains shown)
VH: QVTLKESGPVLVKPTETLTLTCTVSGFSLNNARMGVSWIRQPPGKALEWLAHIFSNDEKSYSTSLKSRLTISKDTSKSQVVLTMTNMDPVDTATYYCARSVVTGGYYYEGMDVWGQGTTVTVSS
VL: SYVLTQPPSVSVAPGQTARITCGGNNIGSESVHWYQQKPGQAPVLVVYDDSDRPSGIPERFSGSNSGNTATLTISRVEAGDEADYYCQVWDGESDHVVFGGGTKLTVLG
notes: IgG4 PE
B12 came in with an off-rate constant (koff) in the assay with human beta-Klotho (KLB) of 0.000346 s⁻¹. In addition, in assay [1], the EC50 turned out to be 0.05 nM and the Emax stood at 2770%.

B13: Ab0212 (antibody, IgG4, V domains shown)
VH: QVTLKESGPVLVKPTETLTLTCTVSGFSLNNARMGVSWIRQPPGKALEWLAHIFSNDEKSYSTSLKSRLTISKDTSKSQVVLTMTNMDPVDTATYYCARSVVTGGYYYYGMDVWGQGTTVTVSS
VL: SYVLTQPPSVSVAPGQTARITCGGNNIGSESVHWYQQKPGQAPVLVVYDDSDRPSGIPERFSGSNSGNTATLTISRVEAGDEADYYCQVWDGESDHVVFGGGTKLTVLG
notes: IgG4 PE
Consider B13, for which, in the assay with human beta-Klotho (KLB), the koff is 0.00185 s⁻¹. In addition, in assay [1], the concentration for a half-maximal effect (EC50) turned out to be 0.07 nM and the Emax stood at 1640%.

B14: Ab0194 (antibody, IgG4, V domains shown)
VH: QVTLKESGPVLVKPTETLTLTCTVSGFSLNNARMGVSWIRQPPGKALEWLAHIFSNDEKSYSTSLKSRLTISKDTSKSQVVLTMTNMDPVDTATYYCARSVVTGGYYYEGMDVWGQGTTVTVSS
VL: SYVLTQPPSVSVAPGQTARITCGGSNIGSESVHWYQQKPGQAPVLVVYDDSDRPSGIPERFSGSNSGNTATLTISRVEAGDEADYYCQVWDGNSDHVVFGGGTKLTVLG
notes: IgG4 PE
In the assay with human beta-Klotho (KLB), B14 yielded an off-rate constant (koff) of 0.000402 s⁻¹. For the same molecule, in assay [1], the EC50 worked out at 0.06 nM and the Emax amounted to 2550%.

B15: Ab0195 (antibody, IgG4, V domains shown)
VH: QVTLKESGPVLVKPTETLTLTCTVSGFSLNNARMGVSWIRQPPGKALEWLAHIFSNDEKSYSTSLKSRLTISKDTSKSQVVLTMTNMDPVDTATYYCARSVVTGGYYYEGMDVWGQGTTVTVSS
VL: SYVLTQPPSVSVAPGQTARITCGGNNIGSESVHWYQQKPGQAPVLVVYYDSDRPSGIPERFSGSNSGNTATLTISRVEAGDEADYYCQVWDGNSDHVVFGGGTKLTVLG
notes: IgG4 PE
B15: the koff with human beta-Klotho (KLB) amounted to 0.00267 s⁻¹. In assay [1], the EC50 was 0.14 nM and the Emax turned out to be 2030%.

B16: Ab0222 (antibody, IgG4, V domains shown)
VH: not shown
VL: SYVLTQPPSVSVAPGQTARITCGGTNIGSESVHWYQQKPGQAPVLVVYDDSDRPSGIPERFSGSNSGNTATLTISRVEAGDEADYYCQVWDGNSDHVVFGGGTKLTVLG
notes: IgG4 PE
Regarding B16, the koff with human beta-Klotho (KLB) was found to be 0.000309 s⁻¹. In assay [1], the EC50 was found to be 0.13 nM and the Emax came to 2020%.

B17: Ab0201 (antibody, IgG4, V domains shown)
VH: QVTLKESGPVLVKPTETLTLTCTVSGFSLNNARVGVSWIRQPPGKALEWLAHIFSNDEKSYSTSLKSRLTISKDTSKSQVVLTMTNMDPVDTATYYCARSVVTGGYYYEGMDVWGQGTTVTVSS
VL: SYVLTQPPSVSVAPGQTARITCGGSNIGSESVHWYQQKPGQAPVLVVYDDSDRPSGIPERFSGSNSGNTATLTISRVEAGDEADYYCQVWDGNSDHVVFGGGTKLTVLG
notes: IgG4 PE
In the assay with human beta-Klotho (KLB), B17 gave a koff of 0.000336 s⁻¹. Further, in assay [1], the EC50 stood at 0.05 nM and the Emax is 2490%.

B18: Ab0216 (antibody, IgG4, V domains shown)
VH: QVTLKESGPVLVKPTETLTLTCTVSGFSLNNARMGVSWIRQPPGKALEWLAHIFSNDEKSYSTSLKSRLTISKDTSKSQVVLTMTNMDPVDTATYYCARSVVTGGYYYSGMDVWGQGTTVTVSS
VL: SYVLTQPPSVSVAPGQTARITCGGNNIGSESVHWYQQKPGQAPVLVVYYDSDRPSGIPERFSGSNSGNTATLTISRVEAGDEADYYCQVWDGNSDHVVFGGGTKLTVLG
notes: IgG4 PE
In the assay with human beta-Klotho (KLB), B18 showed a koff of 0.00984 s⁻¹. Besides, in assay [1], the EC50 was 0.27 nM and the Emax worked out at 1180%.

B19: Ab0202 (antibody, IgG4, V domains shown)
VH: QVTLKESGPVLVKPTETLTLTCTVSGFSLNNARVGVSWIRQPPGKALEWLAHIFSNDEKSYSTSLKSRLTISKDTSKSQVVLTMTNMDPVDTATYYCARSVVTGGYYYEGMDVWGQGTTVTVSS
VL: SYVLTQPPSVSVAPGQTARITCGGNNIGSESVHWYQQKPGQAPVLVVYYDSDRPSGIPERFSGSNSGNTATLTISRVEAGDEADYYCQVWDGNSDHVVFGGGTKLTVLG
notes: IgG4 PE
Consider B19, for which the koff with human beta-Klotho (KLB) is 0.00161 s⁻¹. Also, in assay [1], the EC50 turned out to be 0.07 nM and the Emax was 1510%.

B20: Ab0205 (antibody, IgG4, V domains shown)
VH: QVTLKESGPVLVKPTETLTLTCTVSGFSLNNARVGVSWIRQPPGKALEWLAHIFSNDEKSYSTSLKSRLTISKDTSKSQVVLTMTNMDPVDTATYYCARSVVTGGYYYEGMDVWGQGTTVTVSS
VL: SYVLTQPPSVSVAPGQTARITCGGNNIGSESVHWYQQKPGQAPVLVVYDDSDRPSGIPERFSGSNSGNTATLTISRVEAGDEADYYCQVWDGESDHVVFGGGTKLTVLG
notes: IgG4 PE
The molecule B20 showed a koff with human beta-Klotho (KLB) of 0.000334 s⁻¹. Also, in assay [1], the EC50 amounted to 0.02 nM and the Emax is 2120%.

B21: Ab0218 (antibody, IgG4, V domains shown)
VH: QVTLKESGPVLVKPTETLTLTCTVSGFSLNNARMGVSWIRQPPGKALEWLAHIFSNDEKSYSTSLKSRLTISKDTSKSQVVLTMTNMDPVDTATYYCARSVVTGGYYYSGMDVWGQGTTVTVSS
VL: SYVLTQPPSVSVAPGQTARITCGGNNIGSESVHWYQQKPGQAPVLVVYDDSDRPSGIPERFSGSNSGNTATLTISRVEAGDEADYYCQVWTGNSDHVVFGGGTKLTVLG
notes: IgG4 PE
Turning to B21, the koff with human beta-Klotho (KLB) came to 0.00668 s⁻¹. For the same molecule, in assay [1], the EC50 stood at 2.13 nM and the Emax stood at 1060%.

A word on the koff: it is the first-order rate constant of dissociation. One may read the EC50 as the concentration needed to bring the measured effect to its halfway point. As usually defined, the Emax is the size of the effect at its maximum, as opposed to the concentration needed.
